{"source": "paper doi:10.1101/2020.06.11.147496", "target": "LuS-N71-SpyTag (Aquifex aeolicus lumazine synthase nanoparticle with a glycan at N71 and SpyTag at the N-terminus) (Aquifex aeolicus)"}
{"substance": "SARS-CoV-2 spike-SpyCatcher (prefusion-stabilized SARS-CoV-2 spike trimer fused with a C-terminal SpyCatcher)", "values": [{"measurement": "percent of nanoparticle subunits conjugated", "value": 91, "unit": "%"}]}
